Experimental data: patent US20120135916A1 (SIEMENS HEALTHCARE DIAGNOSTICS, published 2012)
Bridge positions count the residues as written; N and C are the ends. Ends that are not written are not given here. I, II: the chains in the order shown.

B1: R1 CTF32 R2 CTF32 heterodimer (peptide)
peptide 1: VVAAAFVHFYGVSNLQEFRYGLEGGCTDDTLL
peptide 2: VVAGAFVHFHGVSNLQEFRFMIGGGCSEEDAL
modifications: disulfide I:26-II:26
B2: R1 CTF25 R2 CTF25 heterodimer (peptide)
peptide 1: HFYGVSNLQEFRYGLEGGCTDDTLL
peptide 2: HFHGVSNLQEFRFMIGGGCSEEDAL
modifications: disulfide I:19-II:19

biological target: insulin degradation enzyme (IDE) (UniProt P14735 42-1019, limits assumed); assay: cell-based or functional assay

Going from VVAAAFVHFYGVSNLQEFRYGLEGGCTDDTLL (also: homodimer: inter-chain disulfide between Cys26 of both mer units) [R1 CTF32 R1 CTF32 homodimer] to VVAAAFVHFYGVSNLQEFRYGLEGGCTDDTLL [R1 CTF32], the “IDE Inhibition (90% inhibition at)” value rises from 22.5 µg/mL to 50 µg/mL (2.2-fold).

Going from HFYGVSNLQEFRYGLEGGCTDDTLL [R1 CTF25] to VVAGAFVHFHGVSNLQEFRFMIGGGCSEEDAL [R2 CTF32], the “IDE Inhibition (90% inhibition at)” value rises from 12.4 µg/mL to 40 µg/mL (3.2-fold).

First: B1
Second: VVAGAFVHFHGVSNLQEFRFMIGGGCSEEDAL (also: homodimer: inter-chain disulfide between Cys26 of both mer units) [R2 CTF32 R2 CTF32 homodimer]
The “IDE Inhibition (90% inhibition at)” value of the first is 16-fold lower: 1.2 µg/mL for the first, 19 µg/mL for the second.

Compared with HFHGVSNLQEFRFMIGGGCSEEDAL [R2 CTF25], B2 is 15-fold lower in “IDE Inhibition (90% inhibition at)” value: 9 µg/mL for the first, 0.6 µg/mL for the second.
